Reference: patent publication US20220017589A1 (BEIJING QL BIOPHARMACEUTICAL, published 2022)
Where a chain is given by its changes, count along the chain named. One block for each binder: values may come before it.

Legend:
Assay in all cases: cell-based or functional assay
human GLP-1 receptor [1] = target: T1, human GLP-1 receptor (human, UniProt P43220 24-463)
human GFRAL [2] = target: T2, human GFRAL (human, UniProt Q6UXV0 19-394)
T2 sequence (looked up): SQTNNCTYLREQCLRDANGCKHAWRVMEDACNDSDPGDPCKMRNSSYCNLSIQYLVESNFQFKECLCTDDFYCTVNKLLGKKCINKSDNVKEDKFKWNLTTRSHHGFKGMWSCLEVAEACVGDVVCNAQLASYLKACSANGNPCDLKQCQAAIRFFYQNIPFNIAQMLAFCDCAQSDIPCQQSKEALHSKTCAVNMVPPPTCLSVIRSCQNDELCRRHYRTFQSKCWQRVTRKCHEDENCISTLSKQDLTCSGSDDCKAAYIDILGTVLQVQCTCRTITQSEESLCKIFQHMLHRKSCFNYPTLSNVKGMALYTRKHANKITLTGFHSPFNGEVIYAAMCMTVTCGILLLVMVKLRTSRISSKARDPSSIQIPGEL

human GLP-1 receptor [3] = target: T1, human GLP-1 receptor; remark: listed apart in the source
human GFRAL [4] = target: T2, human GFRAL; remark: listed apart in the source

GLP-1 activity (EC50, pM) (human GLP-1 receptor [1]): 10 pM | GDF15 activity (EC50, pM) (human GFRAL [2]): 50 pM | GLP-1 activity (EC50, pM, 1% HSA) (human GLP-1 receptor [3]): 168 pM | GDF15 activity (EC50, pM, 1% HSA) (human GFRAL [4]): 55.5 pM
B1: MLC105 (ligand)
chain: HGEGTFTSDVSSYLEEQAAKEFIAWLVRGGGGAQPGAQPGAQPGAQPCQAPGAQPGAQPGAQPGQEPGAQPGQEPGAQPGQEPGAQPGQEPGAQPGQEPGAQPGQEPGAQPARQGDHCPLGPGRCCRLHTVRASLEDLGWADWVLSPREVQVTMCIGACPSQFRAANLHAQIKTSLHRLKPDTVPAPCCVPASYNPMVLIQKTDTGVSLQTYDDLLAKDCHCI
modifications: Moiety B (HOOC-(CH2)16-CO-gGlu-2XADO-EDA-CO-CH2) on 17C of Linker (48C of fusion polypeptide)

GLP-1 activity (EC50, pM, 1% HSA) (human GLP-1 receptor [3]): 434 pM | GDF15 activity (EC50, pM, 1% HSA) (human GFRAL [4]): 70.2 pM
B2: MLC122 (ligand)
chain: B1 chain with G36C, A37Q, Q38A, C48G, Q49A, A50Q
modifications: Moiety B (HOOC-(CH2)16-CO-gGlu-2XADO-EDA-CO-CH2) on 5C of Linker (36C of fusion polypeptide)

GLP-1 activity (EC50, pM) (human GLP-1 receptor [1]): 2 pM | GDF15 activity (EC50, pM) (human GFRAL [2]): 34.9 pM
B3: MLC091 (ligand)
chain: B1 chain with C48G, Q49A, A50Q, E66C
modifications: Moiety B (HOOC-(CH2)16-CO-gGlu-2XADO-EDA-CO-CH2) on 35C of Linker (66C of fusion polypeptide)

GLP-1 activity (EC50, pM, 1% HSA) (human GLP-1 receptor [3]): 872 pM | GDF15 activity (EC50, pM, 1% HSA) (human GFRAL [4]): 72.8 pM
B4: MLC127 (ligand)
chain: B1 chain with K20C, C48G, Q49A, A50Q
modifications: Moiety B (HOOC-(CH2)16-CO-gGlu-2XADO-EDA-CO-CH2) on 26C of GLP-1 (20C of fusion polypeptide)

GLP-1 activity (EC50, pM) (human GLP-1 receptor [1]): 1.1 pM | GDF15 activity (EC50, pM) (human GFRAL [2]): 59.3 pM | GLP-1 activity (EC50, pM, 1% HSA) (human GLP-1 receptor [3]): 39.9 pM | GDF15 activity (EC50, pM, 1% HSA) (human GFRAL [4]): 58 pM
B5: MLC107 (ligand)
chain: B1 chain with C48G, Q49A, A50Q, G56C, A57Q, Q58A
modifications: Moiety B (HOOC-(CH2)16-CO-gGlu-2XADO-EDA-CO-CH2) on 25C of Linker (56C of fusion polypeptide)

GLP-1 activity (EC50, pM) (human GLP-1 receptor [1]): 1.6 pM | GDF15 activity (EC50, pM) (human GFRAL [2]): 30.2 pM
B6: MLC088 (ligand)
chain: B1 chain with C48G, Q49A, A50Q, G72C
modifications: Moiety C (HOOC-(CH2)20-CO-gGlu-2XADO-EDA-CO-CH2) on 41C of Linker (72C of fusion polypeptide)

GLP-1 activity (EC50, pM, 1% HSA) (human GLP-1 receptor [3]): 9.67 pM | GDF15 activity (EC50, pM, 1% HSA) (human GFRAL [4]): 1670 pM
B7: MLC126 (ligand)
chain: B1 chain with C48G, Q49A, A50Q, G104C
modifications: Moiety B (HOOC-(CH2)16-CO-gGlu-2XADO-EDA-CO-CH2) on 73C of Linker (104C of fusion polypeptide)

GLP-1 activity (EC50, pM, 1% HSA) (human GLP-1 receptor [3]): 9.53 pM | GDF15 activity (EC50, pM, 1% HSA) (human GFRAL [4]): 1360 pM
B8: MLC123 (ligand)
chain: B1 chain with C48G, Q49A, A50Q, A109Q, Q110C
modifications: Moiety B (HOOC-(CH2)16-CO-gGlu-2XADO-EDA-CO-CH2) on 79C of Linker (110C of fusion polypeptide)

GLP-1 activity (EC50, pM) (human GLP-1 receptor [1]): 2.2 pM | GDF15 activity (EC50, pM) (human GFRAL [2]): 48.6 pM
B9: MLC092 (ligand)
chain: B1 chain with C48G, Q49A, A50Q, E66C
modifications: Moiety C (HOOC-(CH2)20-CO-gGlu-2XADO-EDA-CO-CH2) on 35C of Linker (66C of fusion polypeptide)

GLP-1 activity (EC50, pM) (human GLP-1 receptor [1]): 1.5 pM | GDF15 activity (EC50, pM) (human GFRAL [2]): 23.6 pM
B10: MLC090 (ligand)
chain: B1 chain with C48G, Q49A, A50Q, A69Q, Q70C
modifications: Moiety C (HOOC-(CH2)20-CO-gGlu-2XADO-EDA-CO-CH2) on 39C of Linker (70C of fusion polypeptide)

GLP-1 activity (EC50, pM) (human GLP-1 receptor [1]): 1 pM | GDF15 activity (EC50, pM) (human GFRAL [2]): 59.4 pM
B11: MLC047 (ligand)
chain: HGEGTFTSDVSSYLEEQAAREFIAWLVRGGGGQEPGAQPGQEPGAQPGQEPGAQPGQEPGAQPGQEPGAQKGQEPGAQPGAQPGAQPGAQPGAQPGAQPGAQPGAQPGAQPARQGDHCPLGPGRCCRLHTVRASLEDLGWADWVLSPREVQVTMCIGACPSQFRAANLHAQIKTSLHRLRPDTVPAPCCVPASYNPMVLIQRTDTGVSLQTYDDLLARDCHCI
modifications: Moiety A (HOOC-(CH2)16-CO-gGlu-2XADO) on 40K of linker (71K of fusion polypeptide) per Table 2; Table 3 prints 41K of linker

GLP-1 activity (EC50, pM) (human GLP-1 receptor [1]): 1.3 pM | GDF15 activity (EC50, pM) (human GFRAL [2]): 116 pM
B12: MLC064 (ligand)
chain: B11 chain with K71P, Q82K
modifications: Moiety A (HOOC-(CH2)16-CO-gGlu-2XADO) on 51K of Linker (82K of fusion polypeptide)

GLP-1 activity (EC50, pM) (human GLP-1 receptor [1]): 2.8 pM | GDF15 activity (EC50, pM) (human GFRAL [2]): 77.6 pM
B13: MLC017 (ligand)
chain: B11 chain with K71P, Q86K
modifications: Moiety A (HOOC-(CH2)16-CO-gGlu-2XADO) on 55K of Linker (86K of fusion polypeptide)

GLP-1 activity (EC50, pM) (human GLP-1 receptor [1]): 0.88 pM | GDF15 activity (EC50, pM) (human GFRAL [2]): 79.4 pM
B14: MLC104 (ligand)
chain: B11 chain with K71P, P107K
modifications: Moiety A (HOOC-(CH2)16-CO-gGlu-2XADO) on 76K of Linker (107K of fusion polypeptide)

GLP-1 activity (EC50, pM) (human GLP-1 receptor [1]): 3.3 pM | GDF15 activity (EC50, pM) (human GFRAL [2]): 75.5 pM
B15: MLC018 (ligand)
chain: B11 chain with K71P, A81Q, Q82E, P83K, A89Q, Q90E, A97Q, Q98E, A105Q, Q106E
modifications: Moiety A (HOOC-(CH2)16-CO-gGlu-2XADO) on 52K of Linker (83K of fusion polypeptide)
